Source: publication PMC9482650, “Quantitative fragmentomics allow affinity mapping of interactomes” (Nature Communications, 2022)

T1: LNX2_3, Q8N448
T1 sequence (Q8N448 463-564, limits assumed, looked up): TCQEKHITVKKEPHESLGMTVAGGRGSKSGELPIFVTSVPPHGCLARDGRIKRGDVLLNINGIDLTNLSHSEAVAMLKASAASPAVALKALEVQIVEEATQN

T2: PDZD2_2, O15018
T2 sequence (O15018 329-429, limits assumed, looked up): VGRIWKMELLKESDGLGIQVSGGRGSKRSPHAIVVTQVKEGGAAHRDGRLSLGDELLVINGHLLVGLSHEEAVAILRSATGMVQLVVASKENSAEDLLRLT

T3: MPDZ_12, O75970
T3 sequence (O75970 1857-1958, limits assumed, looked up): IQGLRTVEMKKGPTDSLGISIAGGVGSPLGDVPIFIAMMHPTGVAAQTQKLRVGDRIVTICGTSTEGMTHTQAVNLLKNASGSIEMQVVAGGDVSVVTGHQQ

T4: MPDZ_5, O75970
T4 sequence (O75970 695-796, limits assumed, looked up): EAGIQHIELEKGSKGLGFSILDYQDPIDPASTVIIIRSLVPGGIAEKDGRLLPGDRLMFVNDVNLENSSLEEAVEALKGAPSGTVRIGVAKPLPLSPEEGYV

T5: TIAM2, Q8IVF5
T5 sequence (Q8IVF5 885-986, limits assumed, looked up): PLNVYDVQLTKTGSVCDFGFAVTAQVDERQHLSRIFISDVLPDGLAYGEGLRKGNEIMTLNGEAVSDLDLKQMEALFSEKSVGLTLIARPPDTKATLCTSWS

T6: RHPN1, Q8TCX5
T6 sequence (Q8TCX5 508-602, limits assumed, looked up): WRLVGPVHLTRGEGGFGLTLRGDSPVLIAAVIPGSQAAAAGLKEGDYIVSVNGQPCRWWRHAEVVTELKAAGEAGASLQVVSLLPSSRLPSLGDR

T7: RAPGEF6, Q8TEU7
T7 sequence (Q8TEU7 525-625, limits assumed, looked up): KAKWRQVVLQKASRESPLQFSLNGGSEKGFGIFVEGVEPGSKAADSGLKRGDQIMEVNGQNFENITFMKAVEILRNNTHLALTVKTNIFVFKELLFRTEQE

T8: GRIP1_2, Q9Y3R0
T8 sequence (Q9Y3R0 145-248, limits assumed, looked up): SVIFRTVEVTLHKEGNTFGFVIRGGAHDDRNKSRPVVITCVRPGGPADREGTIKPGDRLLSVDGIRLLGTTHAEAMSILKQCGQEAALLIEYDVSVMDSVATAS

T9: APBA1_1, Q02410
T9 sequence (Q02410 651-752, limits assumed, looked up): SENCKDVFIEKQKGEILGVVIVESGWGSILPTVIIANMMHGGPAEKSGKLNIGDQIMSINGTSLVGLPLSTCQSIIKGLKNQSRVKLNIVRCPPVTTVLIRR

T10: PTPN13_1, Q12923
T10 sequence (Q12923 1088-1188, limits assumed, looked up): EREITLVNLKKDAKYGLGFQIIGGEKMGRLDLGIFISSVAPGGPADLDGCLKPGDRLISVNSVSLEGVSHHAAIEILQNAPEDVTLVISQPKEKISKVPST


Assays:
Experiment in all cases: holdup assay
Set-up in all cases: key: below the threshold = too weak to quantify, mostly under pKd 3.1 to 4
Conditions in all cases: plain residues with an end cap or a label only (N-terminal biotin on a linker: ado-ado)
[1] = target: T1, LNX2_3, Q8N448
[2] = target: PARD3_3, Q8TEW0
[3] = target: DLG4_3, P78352
[4] = target: T2, PDZD2_2, O15018
[5] = target: GRIP2_3, Q9C0E4
[6] = target: T3, MPDZ_12, O75970
[7] = target: MAGI2_2, Q86UL8
[8] = target: T4, MPDZ_5, O75970
[9] = target: NHERF4_1, Q86UT5-2
[10] = target: T5, TIAM2, Q8IVF5
[11] = target: FRMPD3, Q5JV73
[12] = target: DLG2_3, Q15700
[13] = target: T6, RHPN1, Q8TCX5
[14] = target: SNX27, Q96L92
[15] = target: T7, RAPGEF6, Q8TEU7
[16] = target: NOS1, P29475
[17] = target: T8, GRIP1_2, Q9Y3R0
[18] = target: LAP2, Q96RT1
[19] = target: HTRA2, O43464
[20] = target: LNX1_2, Q8TBB1
[21] = target: GRIP2_7, Q9C0E4
[22] = target: MAST2, Q6P0Q8
[23] = target: T9, APBA1_1, Q02410
[24] = target: Inadl_1, Q8NI35
[25] = target: DLG4_1, P78352
[26] = target: T10, PTPN13_1, Q12923
[27] = target: DLG1_1, Q12959
[28] = target: FRMPD2_1, Q68DX3
Chain of FRMPD2_1, Q68DX3 (Q68DX3 770-861): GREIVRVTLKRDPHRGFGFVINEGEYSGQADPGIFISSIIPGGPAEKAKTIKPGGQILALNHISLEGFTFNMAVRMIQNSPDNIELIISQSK

Chain of NOS1, P29475 (P29475 9-101): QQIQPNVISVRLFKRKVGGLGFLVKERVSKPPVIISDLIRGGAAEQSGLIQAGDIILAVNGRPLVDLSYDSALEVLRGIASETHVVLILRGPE
Chain of DLG4_3, P78352 (P78352 306-403): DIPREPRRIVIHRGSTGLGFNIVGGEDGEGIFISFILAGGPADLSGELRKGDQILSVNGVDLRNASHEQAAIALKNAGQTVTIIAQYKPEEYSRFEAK
Chain of GRIP2_7, Q9C0E4 (Q9C0E4 934-1023): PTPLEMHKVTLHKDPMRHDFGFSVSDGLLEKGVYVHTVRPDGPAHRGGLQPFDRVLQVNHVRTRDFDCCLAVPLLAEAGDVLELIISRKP
Chain of DLG4_1, P78352 (P78352 62-152): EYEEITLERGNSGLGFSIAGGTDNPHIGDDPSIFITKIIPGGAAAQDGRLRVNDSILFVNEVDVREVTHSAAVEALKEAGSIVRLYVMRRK
Chain of Inadl_1, Q8NI35 (Q8NI35 113-229): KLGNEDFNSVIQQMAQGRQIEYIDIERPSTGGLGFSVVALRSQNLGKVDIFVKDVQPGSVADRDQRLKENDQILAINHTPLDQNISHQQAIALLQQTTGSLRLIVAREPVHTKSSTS
Chain of LAP2, Q96RT1 (Q96RT1 other isoform, or with tags, fused parts or gaps): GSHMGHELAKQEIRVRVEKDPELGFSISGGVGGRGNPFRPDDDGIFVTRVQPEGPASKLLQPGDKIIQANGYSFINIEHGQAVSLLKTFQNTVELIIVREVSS
Chain of HTRA2, O43464 (O43464 355-458): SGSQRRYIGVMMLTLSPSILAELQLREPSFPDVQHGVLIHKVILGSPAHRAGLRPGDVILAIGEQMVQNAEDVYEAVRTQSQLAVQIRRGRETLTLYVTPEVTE
Chain of MAST2, Q6P0Q8 (Q6P0Q8 1099-1202): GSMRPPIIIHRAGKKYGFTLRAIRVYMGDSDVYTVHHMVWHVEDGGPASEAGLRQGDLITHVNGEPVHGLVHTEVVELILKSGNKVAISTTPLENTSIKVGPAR
Chain of GRIP2_3, Q9C0E4 (Q9C0E4 238-339): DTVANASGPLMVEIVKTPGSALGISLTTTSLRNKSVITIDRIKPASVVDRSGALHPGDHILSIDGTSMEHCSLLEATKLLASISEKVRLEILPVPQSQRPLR
Chain of LNX1_2, Q8TBB1 (Q8TBB1 371-470): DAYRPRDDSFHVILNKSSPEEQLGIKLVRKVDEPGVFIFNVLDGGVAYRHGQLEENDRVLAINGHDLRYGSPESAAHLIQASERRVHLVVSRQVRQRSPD
Chain of PARD3_3, Q8TEW0 (Q8TEW0 582-685): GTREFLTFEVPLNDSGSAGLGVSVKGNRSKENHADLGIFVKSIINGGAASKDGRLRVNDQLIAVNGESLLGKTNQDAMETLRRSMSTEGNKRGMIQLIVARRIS
Chain of MAGI2_2, Q86UL8 (Q86UL8 410-522): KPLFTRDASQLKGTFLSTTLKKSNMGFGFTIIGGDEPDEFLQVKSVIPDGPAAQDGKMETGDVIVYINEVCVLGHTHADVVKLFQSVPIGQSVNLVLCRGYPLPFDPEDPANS
Chain of FRMPD3, Q5JV73 (Q5JV73 12-100): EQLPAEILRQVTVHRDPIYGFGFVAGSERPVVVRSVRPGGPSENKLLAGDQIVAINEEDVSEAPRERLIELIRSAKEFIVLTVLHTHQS
Chain of NHERF4_1, Q86UT5-2 (Q86UT5 other isoform, or with tags, fused parts or gaps): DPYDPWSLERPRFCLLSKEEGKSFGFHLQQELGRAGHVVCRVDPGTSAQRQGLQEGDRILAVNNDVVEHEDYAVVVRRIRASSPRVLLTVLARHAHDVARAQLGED

Row | pKd [1] | pKd [2] | pKd [3] | pKd [4] | pKd [5] | pKd [6] | pKd [7] | pKd [8] | pKd [9] | pKd [10] | pKd [11] | pKd [12] | pKd [13] | pKd [14] | pKd [15] | pKd [16] | pKd [17] | pKd [18] | pKd [19] | pKd [20] | Binder | also measured
1 | below the threshold | 3.58 | 3.76 | 3.93 | below the threshold | below the threshold | 4.38 | below the threshold | below the threshold | below the threshold | below the threshold | 3.77 | 4.14 | 5.5 | 3.54 | 3.53 | 3.49 | 3.61 | 3.55 | 3.68 | TNSKQGETTV [FZD1, Q9UP38] | pKd [21]: below the threshold; pKd [22]: 4.88; pKd [23]: below the threshold; pKd [24]: below the threshold; pKd [25]: 4.7; pKd [26]: below the threshold; pKd [27]: 4.61; pKd [28]: 3.79
2 | 3.51 | below the threshold | 4.38 | below the threshold | below the threshold | below the threshold | 5.78 | 3.55 | 3.72 | 3.57 | below the threshold | 4.41 | 4 | 4.31 | below the threshold | 4.02 | below the threshold | below the threshold | below the threshold | 3.5 | THHRKIHTRV [ZNF599, Q96NL3] | pKd [21]: 3.66; pKd [22]: 5.03; pKd [23]: below the threshold; pKd [24]: below the threshold; pKd [25]: 4.98; pKd [26]: below the threshold; pKd [27]: 5.07; pKd [28]: 3.89
3 | 3.61 | below the threshold | 3.84 | below the threshold | below the threshold | below the threshold | 5.31 | below the threshold | below the threshold | below the threshold | below the threshold | 3.88 | below the threshold | 3.88 | below the threshold | 4.17 | 3.57 | below the threshold | below the threshold | below the threshold | TFSRRPKTRV [CD226, Q15762] | pKd [21]: below the threshold; pKd [22]: 4.1; pKd [23]: below the threshold; pKd [24]: below the threshold; pKd [25]: 3.62; pKd [26]: below the threshold; pKd [27]: below the threshold; pKd [28]: 3.73
4 | below the threshold | 3.48 | below the threshold | below the threshold | below the threshold | below the threshold | below the threshold | below the threshold | 3.84 | below the threshold | below the threshold | below the threshold | 4.53 | 5.21 | below the threshold | below the threshold | below the threshold | below the threshold | below the threshold | below the threshold | AKADAQESRL [PLCB2, Q00722] | pKd [21]: below the threshold; pKd [22]: 5.82; pKd [23]: below the threshold; pKd [24]: below the threshold; pKd [25]: below the threshold; pKd [26]: below the threshold; pKd [27]: below the threshold; pKd [28]: below the threshold
5 | below the threshold | 3.84 | below the threshold | 4.39 | below the threshold | below the threshold | below the threshold | below the threshold | 3.94 | 3.96 | 3.63 | 3.53 | 4.5 | 4.17 | below the threshold | below the threshold | below the threshold | below the threshold | below the threshold | below the threshold | VISSDDLTEL [CAPN6, Q9Y6Q1] | pKd [21]: below the threshold; pKd [22]: 5.67; pKd [23]: below the threshold; pKd [24]: below the threshold; pKd [25]: below the threshold; pKd [26]: below the threshold; pKd [27]: below the threshold; pKd [28]: below the threshold
